target: pp1a_human PPP1CA (UniProt P62136)
Sequence (P62136 whole entry): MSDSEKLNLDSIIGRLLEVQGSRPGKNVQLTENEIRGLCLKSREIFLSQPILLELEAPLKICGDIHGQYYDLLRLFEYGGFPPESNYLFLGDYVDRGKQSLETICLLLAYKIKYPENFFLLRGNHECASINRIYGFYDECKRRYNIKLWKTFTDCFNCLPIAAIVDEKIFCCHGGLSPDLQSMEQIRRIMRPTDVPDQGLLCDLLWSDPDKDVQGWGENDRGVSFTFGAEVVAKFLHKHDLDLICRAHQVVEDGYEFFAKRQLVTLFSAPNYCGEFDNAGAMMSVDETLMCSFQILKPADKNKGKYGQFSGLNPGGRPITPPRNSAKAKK

Effect of a mutation on the interaction, increasing interaction strength:
Leucine-rich repeat serine/threonine-protein kinase 2 (Homo sapiens), Q5S007 N1437H
Leucine-rich repeat serine/threonine-protein kinase 2 (Homo sapiens), Q5S007 R1441G
Leucine-rich repeat serine/threonine-protein kinase 2 (Homo sapiens), Q5S007 S910A;S935A;S955A;S973A
Leucine-rich repeat serine/threonine-protein kinase 2 (Homo sapiens), Q5S007 Y1699C

Reference: IntAct's records for PubMed 23937259
